Experimental data from paper PMC3928677 (Science (New York, N.Y.), 2013).
“And” between values parts separate entries of the source, which are not always exact repeats. Equal values may be shown once. Read-outs that look alike come from different tables or passages of the source.

T1: RseB (Escherichia coli, UniProt P0AFX9)
T1 sequence (P0AFX9 24-318): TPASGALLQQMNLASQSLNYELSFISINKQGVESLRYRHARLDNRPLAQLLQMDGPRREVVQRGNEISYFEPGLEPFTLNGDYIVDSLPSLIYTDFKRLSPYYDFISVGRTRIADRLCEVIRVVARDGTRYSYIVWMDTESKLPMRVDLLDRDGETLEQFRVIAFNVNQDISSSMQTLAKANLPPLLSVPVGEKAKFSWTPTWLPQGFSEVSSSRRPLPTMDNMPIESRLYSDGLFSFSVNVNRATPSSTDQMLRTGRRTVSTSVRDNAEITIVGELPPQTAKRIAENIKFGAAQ


How the values were obtained:
[1] = target: T1, RseB; assay: fluorescence anisotropy, displacement of fluorescent RseA^P; type: binding
[2] = target: the molecule itself; assay: SEC
[3] = target: the molecule itself; assay: SEC; remark: listed apart in the source

Row | Molecule | EC50 [1] | stoichiometry N [2] | stoichiometry N [3]
1 | CCCCCCCCCCC[C@@H](O)CC(=O)N[C@H]1[C@H](OC[C@H]2O[C@H](OP(=O)(O)O)[C@H](NC(=O)C[C@H](O)CCCCCCCCCCC)[C@@H](O)[C@@H]2O)O[C@H](CO)[C@@H](OP(=O)(O)O)[C@@H]1O [L-IIA] | ~65 µM | – | –
2 | MucB (natural protein, Pseudomonas aeruginosa, UniProt P38108 22-316, looked up, 35S label (in the elution assay from MucA^P-agarose only)) ADASDWLNRLAEADRQNSFQGTFVYERNGSFSTHEIWHRVESDGAVRERLLQLDGARQEVVRVDGRTQCISGGLADQLADAQLWPVRKFDPSQLASWYDLRLVGESRVAGRPAVVLAVTPRDQHRYGFELHLDRDTGLPLKSLLLNEKGQLLERFQFTQLNTGAAPAEDQLQAGAECQVVGPAKADGEKTVAWRSEWLPPGFTLTRSFMRRSPVTPDPVACLTYGDGLARFSVFIEPLHGAMVGDARSQLGPTVVVSKRLQTDDGGQMVTVVGEVPLGTAERVALSIRPEAAAQK | – | 4 and 2 | –
3 | RseB (natural protein, E. coli, UniProt P0AFX9 24-318, looked up, 35S label (in the elution assay from RseA^P-agarose only)) TPASGALLQQMNLASQSLNYELSFISINKQGVESLRYRHARLDNRPLAQLLQMDGPRREVVQRGNEISYFEPGLEPFTLNGDYIVDSLPSLIYTDFKRLSPYYDFISVGRTRIADRLCEVIRVVARDGTRYSYIVWMDTESKLPMRVDLLDRDGETLEQFRVIAFNVNQDISSSMQTLAKANLPPLLSVPVGEKAKFSWTPTWLPQGFSEVSSSRRPLPTMDNMPIESRLYSDGLFSFSVNVNRATPSSTDQMLRTGRRTVSTSVRDNAEITIVGELPPQTAKRIAENIKFGAAQ | – | 4 | 2
